We go through three substances from patent US20190330358A1.

Assay [1] concerns the target human AITR expressed on the cell surface (human) (UniProt Q9Y5U5). Put plainly: flow cytometry on iTreg cells, surface AITR.
For assay [2] the target is unchanged. Put plainly: flow cytometry on human iTreg cells; average of TRX518 and MK4166.
For assay [3] the target is unchanged. Put plainly: flow cytometry on AITR-5 cells (HEK293 overexpressing human AITR); unstained AITR-5 panel: Q1 0.98. A general note: Flow cytometry measures light scatter and fluorescence of single cells or particles in a stream.

Chain of human AITR expressed on the cell surface (human) (Q9Y5U5 26-241): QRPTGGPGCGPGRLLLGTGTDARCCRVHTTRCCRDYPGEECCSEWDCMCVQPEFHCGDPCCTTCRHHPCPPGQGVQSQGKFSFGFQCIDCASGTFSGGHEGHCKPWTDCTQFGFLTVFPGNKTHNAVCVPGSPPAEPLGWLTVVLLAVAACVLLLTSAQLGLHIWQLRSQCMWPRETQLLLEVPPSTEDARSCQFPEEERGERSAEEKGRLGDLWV

With MK4166 (Merck's anti-GITR antibody), the % of iTreg cells in the upper right quadrant (CD4+, antibody-positive) in assay [1] was 17.1%. In addition, the % of iTreg cells recognized as positive for human AITR in assay [2] amounted to 19%.

In turn, TRX518 (antibody) gave a % of iTreg cells in the upper right quadrant (CD4+, antibody-positive) in assay [1] of 20.8%. The % of iTreg cells recognized as positive for human AITR in assay [2] turned out to be 19%.

Take Isotype control (antibody): the % of iTreg cells in the upper right quadrant (CD4+, antibody-positive) in assay [1] turned out to be 0.79%. The same substance yielded a % of AITR-5 cells in Q1 (antibody-positive) in assay [3] of 1.95%.
